From patent US20250346643A1, “TROPOMYOSIN KINASE RECEPTOR (TRK) LIGANDS AS THERAPEUTICS TO SUPPORT LIVER REGENERATION” (Vanderbilt University, priority 2024, published 2025) come the findings set out here.

The nature of series [1]: Storage stability of solubilized recombinant NTF3 at -80 C. The series is classed as physicochemical. The settings on record: solubilized in 0.1% BSA/PBS, stored at -80 C. The protocol:
Treatment with recombinant NTF3. Four months old mice were injected via tail vein for 4 consecutive days with recombinant NTF3 (STEMCELL technology, Vancouver, Canada; cat. 78074, lots 1000070683, 1000077434) diluted in sterile 0.9% saline (0.9% NaCl) or vehicle only. Mice were weighed daily and recombinant NTF3 given at 20 ng/g body weight or 100 ng/g body weight, respectively. Lyophilized NTF3 was solubilized in 0.1% BSA/PBS (bovine serum albumin, Sigma-Aldrich, St. Louis, MO; A3059) and stored at −80° C. until use.
Human HepG2 and mouse AML12 cells were grown in 6-well plates. Cells were treated with NTF3 (20 ng/ml) purchased from STEMCELL technologies, Vancouver, Canada (cat. 78074), R&D Systems, Minneapolis, MN (267-N3), Gibco, Waltham, MA (PHC7036) and/or Loxo-195 (5-10 nM) (Selleckchem, Houston, TX; S8636) in complete growth media without L-glutamine for 2 hours. Lyophilized NTF3 was solubilized with sterile filtered PBS supplemented with 0.1% BSA, aliquoted and stored at −80° C. until use. […] Protein concentration of supernatants were determined by Direct Detect Spectrophotometer (MilliporeSigma, Burlington, MA). […]
Immunoblotting. […] Protein concentration of supernatants was determined by Direct Detect Spectrophotometer (MilliporeSigma, Burlington, MA). […] The protein concentration of supernatants was determined by a Direct Detect® spectrophotometer (MilliporeSigma, Burlington, MA). […]

The test system of series [2] is mTOR. Kind of series: Immunoblotting of mpPHH for P-S6RP and P-P70S6K (mTOR activation). As to conditions: NTF3. Type of series: cell-based, human. The protocol: Mouse passaged primary human hepatocytes. Mouse-passaged primary human hepatocytes (mpPHHs) were collected as previously described (Michailidis et al., Proc Natl Acad Sci USA. 2020; 117(3): 1678-1688) and cultured in hepatocyte culture media (CC-3198, Lonza, Basel, Switzerland) in collagen-coated chamber slides. Three days before treatment, mpPHH were incubated in William's E media (with L-glutamine). […] 5-15 images per treatment per experiment were randomly taken and EdU positive nuclei quantified.
Immunoblotting. […] Protein concentration of supernatants was determined by Direct Detect Spectrophotometer (MilliporeSigma, Burlington, MA). […] The protein concentration of supernatants was determined by a Direct Detect® spectrophotometer (MilliporeSigma, Burlington, MA). For immunoblot analysis, 10 to 50 μg of protein diluted in […] sample buffer (Invitrogen, Waltham, MA) were analyzed per SDS-polyacrylamide gel electrophoresis (NuPAGE™, Invitrogen, Waltham, MA) using Mops buffer or MES buffer (Invitrogen, Waltham, MA). […] Semi-quantitative band densitometry was performed using ImageJ software (version 1.53).
For orientation: In western blotting, separated proteins are transferred to a membrane and probed.

On to “NTF3: neurotrophin-3, recombinant protein; HSC-derived hepatocyte mitogen, ligand of TRKA, TRKB, TRKC”, for which the “storage time at which activity and protein concentration declined significantly” value in series [1] is “approximately 3 months”. The “levels of phosphorylated P-S6RP Ser240/244 and P-pS70SK Thr389” value in series [2] was “increased levels”.
